T1: Len(1-22) monomer peptide (Homo sapiens (Human), UniProt P06312 21-42)
T1 construct: Analyte in SPR; on beads in the pulldown assay; also called Vκ4(LEN(1-22) beads)
T1 peptide: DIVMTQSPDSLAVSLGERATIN


How the values were obtained:
rVλ6Wil fibrils = molecular target: T2, rVλ6Wil fibrils; experiment: EuLISA
T2 construct: domain: λ6 variable domain; Synthetic amyloid-like fibrils; also called rVλWIL; rVλ6Wil synthetic fibrils

TAL ALκ liver extract = molecular target: T3, TAL ALκ liver extract; experiment: EuLISA
T3 construct: Human AL amyloid extract; also called ALκ (TAL); ALκ TAL

SHI ALλ liver extract = molecular target: T4, SHI ALλ liver extract; experiment: EuLISA
T4 construct: Human AL amyloid extract; also called ALλ (SHI); ALλ SHI extract

Per125 wtATTR extract = Per125 wtATTR extract (human, UniProt P02766 21-147); experiment: EuLISA
[1] = molecular target: T1, Len(1-22) monomer peptide; experiment: SPR, antibody as ligand, peptide as analyte
Wherever Max is given: unit not given here.

Binder	Kd [1] [µM]	koff [1] [s⁻¹]	kon [1] [M⁻¹ s⁻¹]	other results
m11-1F4 (antibody, V domains shown, Murine monoclonal antibody; also called murine parent) VH: QVQLKESGPGLVAPSQSLSITCTVSGFSLSSYGVSWVRQPPGKGLEWLGVIWGDGSTNYHPNLMSRLSISKDISKSQVLFKLNSLQTDDTATYYCVTLDYWGQGTSVTVSS VL: DVVMTQTPLSLPVSLGDQASISCRSSQSLVHRNGNTYLHWYLQKPGQSPKLLIYKVSNRFSGVPDRFSGSGSGTDFTLKISRVEAEDLGLYFCFQTTYVPNTFGGGTKLEIK				EC50 (rVλ6Wil fibrils): 0.543 µM; LogEC50 (rVλ6Wil fibrils): 6.26 -log(M); Max (rVλ6Wil fibrils): 184; LogEC50 (TAL ALκ liver extract): ~3.03 -log(M); Max (TAL ALκ liver extract): ~35100; LogEC50 (SHI ALλ liver extract): ~4.45 -log(M); Max (SHI ALλ liver extract): ~1510; EC50 (Per125 wtATTR extract): 1.88 µM; LogEC50 (Per125 wtATTR extract): 5.72 -log(M); Max (Per125 wtATTR extract): 209
VH9 + VL4-N33A (antibody, V domains shown, Humanized 11-1F4 variant) VH: QVQLQESGPGLVKPSETLSLTCTVSGFSLSSYGVSWIRQPPGKGLEWLGVIWGDGSTNYHPNLMSRVTISVDTSKSQVLFKLSSVTAADTAVYYCATLDYWGQGTSVTVSS VL: DVVMTQSPLSLPVTLGQPASISCRSSQSLVHRAGNTYLHWFQQRPGQSPRLLIYKVSNRFSGVPDRFSGSGSGTDFTLKISRVEAEDVGVYFCFQTTYVPNTFGGGTKLEIK	0.0885	0.001	11300	
VH9-D54S + VL4 (antibody, V domains shown, Humanized 11-1F4 variant) VH: QVQLQESGPGLVKPSETLSLTCTVSGFSLSSYGVSWIRQPPGKGLEWLGVIWGSGSTNYHPNLMSRVTISVDTSKSQVLFKLSSVTAADTAVYYCATLDYWGQGTSVTVSS VL: DVVMTQSPLSLPVTLGQPASISCRSSQSLVHRNGNTYLHWFQQRPGQSPRLLIYKVSNRFSGVPDRFSGSGSGTDFTLKISRVEAEDVGVYFCFQTTYVPNTFGGGTKLEIK	0.0605	0.000139	2300	
VH9-D54A + VL4 (antibody, V domains shown, Humanized 11-1F4 variant) VH: QVQLQESGPGLVKPSETLSLTCTVSGFSLSSYGVSWIRQPPGKGLEWLGVIWGAGSTNYHPNLMSRVTISVDTSKSQVLFKLSSVTAADTAVYYCATLDYWGQGTSVTVSS VL: DVVMTQSPLSLPVTLGQPASISCRSSQSLVHRNGNTYLHWFQQRPGQSPRLLIYKVSNRFSGVPDRFSGSGSGTDFTLKISRVEAEDVGVYFCFQTTYVPNTFGGGTKLEIK	2.18	0.000778	356	
VH9 + VL4-N33Q (antibody, V domains shown, Humanized 11-1F4 variant) VH: QVQLQESGPGLVKPSETLSLTCTVSGFSLSSYGVSWIRQPPGKGLEWLGVIWGDGSTNYHPNLMSRVTISVDTSKSQVLFKLSSVTAADTAVYYCATLDYWGQGTSVTVSS VL: DVVMTQSPLSLPVTLGQPASISCRSSQSLVHRQGNTYLHWFQQRPGQSPRLLIYKVSNRFSGVPDRFSGSGSGTDFTLKISRVEAEDVGVYFCFQTTYVPNTFGGGTKLEIK	0.0784	0.00104	13300	
VH9-D54Q + VL4 (antibody, V domains shown, Humanized 11-1F4 variant) VH: QVQLQESGPGLVKPSETLSLTCTVSGFSLSSYGVSWIRQPPGKGLEWLGVIWGQGSTNYHPNLMSRVTISVDTSKSQVLFKLSSVTAADTAVYYCATLDYWGQGTSVTVSS VL: DVVMTQSPLSLPVTLGQPASISCRSSQSLVHRNGNTYLHWFQQRPGQSPRLLIYKVSNRFSGVPDRFSGSGSGTDFTLKISRVEAEDVGVYFCFQTTYVPNTFGGGTKLEIK	0.256	0.000997	3900	
VH9 + VL4-N33E (antibody, V domains shown, Humanized 11-1F4 variant) VH: QVQLQESGPGLVKPSETLSLTCTVSGFSLSSYGVSWIRQPPGKGLEWLGVIWGDGSTNYHPNLMSRVTISVDTSKSQVLFKLSSVTAADTAVYYCATLDYWGQGTSVTVSS VL: DVVMTQSPLSLPVTLGQPASISCRSSQSLVHREGNTYLHWFQQRPGQSPRLLIYKVSNRFSGVPDRFSGSGSGTDFTLKISRVEAEDVGVYFCFQTTYVPNTFGGGTKLEIK	0.106	0.00131	12300	
VH9-G55V + VL4 (antibody, V domains shown, Humanized 11-1F4 variant) VH: QVQLQESGPGLVKPSETLSLTCTVSGFSLSSYGVSWIRQPPGKGLEWLGVIWGDVSTNYHPNLMSRVTISVDTSKSQVLFKLSSVTAADTAVYYCATLDYWGQGTSVTVSS VL: DVVMTQSPLSLPVTLGQPASISCRSSQSLVHRNGNTYLHWFQQRPGQSPRLLIYKVSNRFSGVPDRFSGSGSGTDFTLKISRVEAEDVGVYFCFQTTYVPNTFGGGTKLEIK	0.483	0.00163	3380	
VH9-D54H + VL4 (antibody, V domains shown, Humanized 11-1F4 variant) VH: QVQLQESGPGLVKPSETLSLTCTVSGFSLSSYGVSWIRQPPGKGLEWLGVIWGHGSTNYHPNLMSRVTISVDTSKSQVLFKLSSVTAADTAVYYCATLDYWGQGTSVTVSS VL: DVVMTQSPLSLPVTLGQPASISCRSSQSLVHRNGNTYLHWFQQRPGQSPRLLIYKVSNRFSGVPDRFSGSGSGTDFTLKISRVEAEDVGVYFCFQTTYVPNTFGGGTKLEIK	0.235	0.00139	5930	
VH9-D54E + VL4 (antibody, V domains shown, Humanized 11-1F4 variant) VH: QVQLQESGPGLVKPSETLSLTCTVSGFSLSSYGVSWIRQPPGKGLEWLGVIWGEGSTNYHPNLMSRVTISVDTSKSQVLFKLSSVTAADTAVYYCATLDYWGQGTSVTVSS VL: DVVMTQSPLSLPVTLGQPASISCRSSQSLVHRNGNTYLHWFQQRPGQSPRLLIYKVSNRFSGVPDRFSGSGSGTDFTLKISRVEAEDVGVYFCFQTTYVPNTFGGGTKLEIK	0.163	0.00135	8280	
VH9 + VL4-N33S (antibody, V domains shown, Humanized 11-1F4 variant) VH: QVQLQESGPGLVKPSETLSLTCTVSGFSLSSYGVSWIRQPPGKGLEWLGVIWGDGSTNYHPNLMSRVTISVDTSKSQVLFKLSSVTAADTAVYYCATLDYWGQGTSVTVSS VL: DVVMTQSPLSLPVTLGQPASISCRSSQSLVHRSGNTYLHWFQQRPGQSPRLLIYKVSNRFSGVPDRFSGSGSGTDFTLKISRVEAEDVGVYFCFQTTYVPNTFGGGTKLEIK	0.0669	0.000954	14300	

Now from value to binder, other results behind:

Kd [1] [µM]	koff [1] [s⁻¹]	kon [1] [M⁻¹ s⁻¹]	Binder	other results
0.0304	0.00181	59500	VH9 + VL4-G34A (antibody, V domains shown, Humanized 11-1F4 variant) VH: QVQLQESGPGLVKPSETLSLTCTVSGFSLSSYGVSWIRQPPGKGLEWLGVIWGDGSTNYHPNLMSRVTISVDTSKSQVLFKLSSVTAADTAVYYCATLDYWGQGTSVTVSS VL: DVVMTQSPLSLPVTLGQPASISCRSSQSLVHRNANTYLHWFQQRPGQSPRLLIYKVSNRFSGVPDRFSGSGSGTDFTLKISRVEAEDVGVYFCFQTTYVPNTFGGGTKLEIK	
0.0566	0.000743	13100	VH9 + VL4-N33H (antibody, V domains shown, Humanized 11-1F4 variant) VH: QVQLQESGPGLVKPSETLSLTCTVSGFSLSSYGVSWIRQPPGKGLEWLGVIWGDGSTNYHPNLMSRVTISVDTSKSQVLFKLSSVTAADTAVYYCATLDYWGQGTSVTVSS VL: DVVMTQSPLSLPVTLGQPASISCRSSQSLVHRHGNTYLHWFQQRPGQSPRLLIYKVSNRFSGVPDRFSGSGSGTDFTLKISRVEAEDVGVYFCFQTTYVPNTFGGGTKLEIK	
0.0218	0.00052	23800	VH9-M64V + VL4 (antibody, V domains shown, Humanized 11-1F4 variant) VH: QVQLQESGPGLVKPSETLSLTCTVSGFSLSSYGVSWIRQPPGKGLEWLGVIWGDGSTNYHPNLVSRVTISVDTSKSQVLFKLSSVTAADTAVYYCATLDYWGQGTSVTVSS VL: DVVMTQSPLSLPVTLGQPASISCRSSQSLVHRNGNTYLHWFQQRPGQSPRLLIYKVSNRFSGVPDRFSGSGSGTDFTLKISRVEAEDVGVYFCFQTTYVPNTFGGGTKLEIK	
0.0224	0.00208	93000	VH9-M64L + VL4 (antibody, V domains shown, Humanized 11-1F4 variant) VH: QVQLQESGPGLVKPSETLSLTCTVSGFSLSSYGVSWIRQPPGKGLEWLGVIWGDGSTNYHPNLLSRVTISVDTSKSQVLFKLSSVTAADTAVYYCATLDYWGQGTSVTVSS VL: DVVMTQSPLSLPVTLGQPASISCRSSQSLVHRNGNTYLHWFQQRPGQSPRLLIYKVSNRFSGVPDRFSGSGSGTDFTLKISRVEAEDVGVYFCFQTTYVPNTFGGGTKLEIK	
0.0172	0.000484	28200	VH9-G55A + VL4 (antibody, V domains shown, Humanized 11-1F4 variant) VH: QVQLQESGPGLVKPSETLSLTCTVSGFSLSSYGVSWIRQPPGKGLEWLGVIWGDASTNYHPNLMSRVTISVDTSKSQVLFKLSSVTAADTAVYYCATLDYWGQGTSVTVSS VL: DVVMTQSPLSLPVTLGQPASISCRSSQSLVHRNGNTYLHWFQQRPGQSPRLLIYKVSNRFSGVPDRFSGSGSGTDFTLKISRVEAEDVGVYFCFQTTYVPNTFGGGTKLEIK	
0.0133	0.00104	77900	VH9-M64A + VL4 (antibody, V domains shown, Humanized 11-1F4 variant) VH: QVQLQESGPGLVKPSETLSLTCTVSGFSLSSYGVSWIRQPPGKGLEWLGVIWGDGSTNYHPNLASRVTISVDTSKSQVLFKLSSVTAADTAVYYCATLDYWGQGTSVTVSS VL: DVVMTQSPLSLPVTLGQPASISCRSSQSLVHRNGNTYLHWFQQRPGQSPRLLIYKVSNRFSGVPDRFSGSGSGTDFTLKISRVEAEDVGVYFCFQTTYVPNTFGGGTKLEIK	
0.0207	0.00192	92900	VH9-M64I + VL4 (antibody, V domains shown, Humanized 11-1F4 variant) VH: QVQLQESGPGLVKPSETLSLTCTVSGFSLSSYGVSWIRQPPGKGLEWLGVIWGDGSTNYHPNLISRVTISVDTSKSQVLFKLSSVTAADTAVYYCATLDYWGQGTSVTVSS VL: DVVMTQSPLSLPVTLGQPASISCRSSQSLVHRNGNTYLHWFQQRPGQSPRLLIYKVSNRFSGVPDRFSGSGSGTDFTLKISRVEAEDVGVYFCFQTTYVPNTFGGGTKLEIK	
